Source: the Immune Epitope Database (IEDB)

Key:
HLA-A*69:01 = assay: IEDB peptide-MHC binding, purified MHC/direct/fluorescence; filed as Kd, often an IC50 or EC50 that approximates it; ≥ and ≤ were set here for values at or beyond the usual limits of such assays; settings: source organism: Influenza A virus (A/Duck/Shantou/2134/00(H9N2))
HLA-A*11:01 = assay: as above; settings: source organism: Influenza A virus (A/Duck/Shantou/2134/00(H9N2))
HLA-B*15:01 [1] = assay: as above
HLA-A*02:01 [2] = assay: as above; settings: source organism: Influenza A virus (A/Duck/Shantou/2134/00(H9N2))
HLA-B*44:02 = assay: as above; settings: source organism: Influenza A virus (A/Duck/Shantou/2134/00(H9N2))
HLA-B*07:02 = assay: as above
HLA-B*27:05 = assay: as above; settings: source organism: Influenza A virus (A/Duck/Shantou/2134/00(H9N2))
HLA-B*08:01 = assay: as above; settings: source organism: Influenza A virus (A/Duck/Shantou/2134/00(H9N2))
HLA-B*40:01 [3] = assay: as above; settings: source organism: Influenza A virus (A/Duck/Shantou/2134/00(H9N2))
HLA-B*08:02 = assay: as above; settings: source organism: Influenza A virus (A/Taiwan/2/2006(H1N1))
HLA-A*01:01 [4] = assay: as above; settings: source organism: Influenza A virus (A/Duck/Shantou/2134/00(H9N2))
HLA-A*24:02 [5] = assay: as above; settings: source organism: Influenza A virus (A/Duck/Shantou/2134/00(H9N2))
HLA-B*58:01 = assay: as above; settings: source organism: Influenza A virus (A/Duck/Shantou/2134/00(H9N2))
HLA-A*26:01 = assay: as above; settings: source organism: Influenza A virus (A/Taiwan/2/2006(H1N1))
HLA-A*03:01 = assay: as above; settings: source organism: Influenza A virus (A/Duck/Shantou/2134/00(H9N2))
HLA-B*15:01 [6] = assay: IEDB peptide-MHC binding, purified MHC/competitive/fluorescence; ≥ and ≤ were set here for values at or beyond the usual limits of such assays; settings: source organism: Zaire ebolavirus
HLA-A*02:01 [7] = assay: as above; settings: source organism: Zaire ebolavirus
HLA-A*01:01 [8] = assay: as above; settings: source organism: Zaire ebolavirus
HLA-A*24:02 [9] = assay: as above; settings: source organism: Zaire ebolavirus
HLA-B*51:01 = assay: IEDB peptide-MHC binding, purified MHC/direct/fluorescence; filed as Kd, often an IC50 or EC50 that approximates it; ≥ and ≤ were set here for values at or beyond the usual limits of such assays; settings: source organism: Mycobacterium tuberculosis
HLA-B*15:42 = assay: IEDB peptide-MHC binding, purified MHC/competitive/fluorescence; filed as Kd, often an IC50 or EC50 that approximates it; ≥ and ≤ were set here for values at or beyond the usual limits of such assays
HLA-C*04:01 = assay: as above
HLA-B*45:06 = assay: as above
HLA-A*32:07 = assay: as above; settings: source organism: Mycobacterium tuberculosis
HLA-B*15:01 [10] = assay: as above; settings: source organism: Yersinia pestis Nepal516
HLA-B*40:01 [11] = assay: as above; settings: source organism: Yersinia pestis Nepal516
HLA-B*83:01 = assay: as above; settings: source organism: Yersinia pestis Nepal516
HLA-A*02:01 [12] = assay: as above; settings: source organism: Toxoplasma gondii GT1
HLA-A*02:06 = assay: as above; settings: source organism: Toxoplasma gondii GT1
HLA-A*26:03 = assay: IEDB peptide-MHC binding, purified MHC/direct/fluorescence; filed as Kd, often an IC50 or EC50 that approximates it; ≥ and ≤ were set here for values at or beyond the usual limits of such assays; settings: source organism: Fowlpox virus
[13] = source organism: Mycobacterium tuberculosis
[14] = source organism: Yersinia pestis Nepal516

ASRGLWDSF
Kd (HLA-A*69:01): ≥ 20 µM | Kd (HLA-A*11:01): ≥ 20 µM | Kd (HLA-B*15:01 [1]; source organism: Influenza A virus (A/Puerto Rico/8/34/Mount Sinai(H1N1))): 0.891 µM | Kd (HLA-A*02:01 [2]): ≥ 20 µM | Kd (HLA-B*44:02): ≥ 20 µM | Kd (HLA-B*07:02; source organism: Influenza A virus (A/Duck/Shantou/2134/00(H9N2))): ≥ 20 µM | Kd (HLA-B*27:05): ≥ 20 µM | Kd (HLA-B*08:01): ≥ 20 µM | Kd (HLA-B*40:01 [3]): ≥ 20 µM | Kd (HLA-B*08:02): ≥ 20 µM | Kd (HLA-A*01:01 [4]): ≥ 20 µM | Kd (HLA-A*24:02 [5]): ≥ 20 µM | Kd (HLA-B*58:01): ≥ 5 µM | Kd (HLA-A*26:01): ≥ 20 µM | Kd (HLA-A*03:01): ≥ 20 µM

YLEGHGFRF
IC50 (HLA-B*15:01 [6]): 17.6 µM | IC50 (HLA-A*02:01 [7]): 0.403 µM | IC50 (HLA-A*01:01 [8]): ≥ 76.3 µM | IC50 (HLA-A*24:02 [9]): 0.18 µM

ALRQARAAF
Kd (HLA-B*15:01 [1]; source organism: Mycobacterium tuberculosis str. Haarlem): 0.012 µM | Kd (HLA-B*07:02; [13]): 0.0089 µM | Kd (HLA-B*51:01): ≥ 20 µM | Kd (HLA-B*15:42; [13]): ≥ 5 µM | Kd (HLA-C*04:01; [13]): ≥ 5 µM | Kd (HLA-B*45:06; [13]): ≥ 5 µM | Kd (HLA-A*32:07): 0.157 µM

VEMQLAVVI
Kd (HLA-B*15:01 [10]): ≥ 20 µM | Kd (HLA-B*15:42; [14]): ≥ 5 µM | Kd (HLA-B*40:01 [11]): 0.0079 µM | Kd (HLA-B*83:01): ≥ 5 µM | Kd (HLA-C*04:01; [14]): ≥ 5 µM | Kd (HLA-B*45:06; [14]): ≥ 5 µM

VLGSWPVDL
Kd (HLA-A*02:01 [12]): 0.209 µM | Kd (HLA-A*02:06): 2.46 µM

HVFVCGNNM
Kd (HLA-A*26:03): 0.076 µM
